Laboratory results: patent publication US20020055173, “Method for preparing adenovirus vectors, vectors so prepared, and uses thereof” (published 2002)
Changes are numbered by the printed parent chain.

Tests used:
[1] = target: T1, MAZ (UniProt P56270 P56270:1-477); experiment: footprint; two MAZ sites; settings: tags: prepared as in Parks and Shenk 1996; label: 5' end label in luciferase coding region
T1 sequence: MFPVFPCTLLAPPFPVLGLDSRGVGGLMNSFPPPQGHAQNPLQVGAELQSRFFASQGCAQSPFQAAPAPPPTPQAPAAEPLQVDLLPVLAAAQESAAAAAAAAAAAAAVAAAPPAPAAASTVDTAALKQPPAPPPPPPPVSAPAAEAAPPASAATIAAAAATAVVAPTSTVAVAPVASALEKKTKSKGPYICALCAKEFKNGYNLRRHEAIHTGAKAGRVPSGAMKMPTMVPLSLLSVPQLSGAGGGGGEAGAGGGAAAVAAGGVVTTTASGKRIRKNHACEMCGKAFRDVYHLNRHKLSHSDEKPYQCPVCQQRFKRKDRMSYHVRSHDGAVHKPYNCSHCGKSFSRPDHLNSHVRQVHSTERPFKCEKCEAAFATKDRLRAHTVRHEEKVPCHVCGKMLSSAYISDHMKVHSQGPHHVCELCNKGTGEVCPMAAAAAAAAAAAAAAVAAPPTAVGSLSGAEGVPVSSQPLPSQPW

[2] = target: T2, Sp1 (UniProt P08047 P08047:2-785); experiment: footprint; one Sp1 site (-18GC); settings: tags: Promega; label: 5' end label in luciferase coding region
T2 sequence (P08047 2-785, one chain of several): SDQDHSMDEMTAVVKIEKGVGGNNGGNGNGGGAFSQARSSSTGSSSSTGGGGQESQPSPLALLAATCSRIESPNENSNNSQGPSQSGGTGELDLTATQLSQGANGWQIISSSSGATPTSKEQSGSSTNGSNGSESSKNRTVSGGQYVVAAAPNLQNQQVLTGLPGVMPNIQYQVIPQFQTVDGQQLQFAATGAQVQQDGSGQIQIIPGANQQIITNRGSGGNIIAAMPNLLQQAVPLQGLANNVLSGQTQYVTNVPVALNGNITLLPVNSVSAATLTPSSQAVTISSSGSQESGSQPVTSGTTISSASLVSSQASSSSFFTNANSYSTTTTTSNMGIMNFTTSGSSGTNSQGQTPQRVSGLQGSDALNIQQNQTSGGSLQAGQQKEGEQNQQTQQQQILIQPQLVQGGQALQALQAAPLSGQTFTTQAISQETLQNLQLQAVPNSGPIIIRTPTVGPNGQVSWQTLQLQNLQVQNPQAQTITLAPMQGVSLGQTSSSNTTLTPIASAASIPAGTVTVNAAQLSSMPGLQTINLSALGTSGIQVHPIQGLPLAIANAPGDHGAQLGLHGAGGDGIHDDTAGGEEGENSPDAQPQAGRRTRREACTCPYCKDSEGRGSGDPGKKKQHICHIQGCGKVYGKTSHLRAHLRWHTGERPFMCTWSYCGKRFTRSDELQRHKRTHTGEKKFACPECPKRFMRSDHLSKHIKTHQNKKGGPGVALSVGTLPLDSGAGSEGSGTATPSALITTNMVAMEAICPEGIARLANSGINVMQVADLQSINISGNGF

[3] = target: T2, Sp1; experiment: footprint; interaction completely blocked; settings: tags: Promega; label: 5' end label in luciferase coding region
[4] = target: T2, Sp1; experiment: footprint; Sp1 footprint not altered; settings: tags: Promega; label: 5' end label in luciferase coding region
[5] = target: T1, MAZ; experiment: footprint; interaction substantially blocked; settings: tags: prepared as in Parks and Shenk 1996; label: 5' end label in luciferase coding region
[6] = target: T2, Sp1; experiment: footprint; interaction substantially blocked; settings: tags: Promega; label: 5' end label in luciferase coding region

B1: minimal MLP wild type (dsDNA)
DNA 1: TGAAGGGGGGCTATAAAAGGGGGTGGGGGCGCGTTCGTCCTCACTCTCTTCC
DNA 2: GGAAGAGAGTGAGGACGAACGCGCCCCCACCCCCTTTTATAGCCCCCCTTCA
[1]
  binding result: binds
[2]
  binding result: binds

B2: minimal MLP M1 (-18GC mutant) (dsDNA)
DNA 1: B1 DNA 1 with G20T, G22T, G26T, G28T, C30T, C32T
DNA 2: B1 DNA 2 with G21A, G23A, C25A, C27A, C31A, C33A
[3]
  binding result: no binding

B3: minimal MLP M2 (-36GC mutant) (dsDNA)
DNA 1: B1 DNA 1 with A3T, A4T, G6T, G7T, G9T, G10T
DNA 2: B1 DNA 2 with C43A, C44A, C46A, C47A, T49A, T50A
[4]
  binding result: binds

B4: minimal MLP M3 (-18GC and -36GC mutant) (dsDNA)
DNA 1: TGTTGTTGTTCTATAAAAGTGTGTGTGTGTGCGTTCGTCCTCACTCTCTTCC
DNA 2: GGAAGAGAGTGAGGACGAACGCACACACACACACTTTTATAGAACAACAACA
[5]
  binding result: no binding
[6]
  binding result: no binding
